Target: STAT-1alpha wild type (Tyr-phosphorylated) (Homo sapiens, UniProt P42224 P42224:2-750)
Test: EMSA
Settings: tags: in vitro Tyr-phosphorylated with EGF-receptor kinase; chain copies: 4 on tandem site (two dimers), stated; 2 on single site; label: radiolabel
Experimental: Both protein preparations (Tyr-phosphorylated wild type STAT-1α and W37A mutant) were titrated in gel shift experiments with an oligonucleotide containing a single M67 site (5'-GCCGAT TTCCCGTAAATCAT-3', SEQ ID NO:5) [Wagner et al., *EMBO J.* 9:4477 (1990)] to assure similar loading of active protein. A 12.5 μl reaction volume contained DNA binding buffer (20 mM Hepes/HCl, 4% Ficoll, 40 mM KCl, 10 mM MgCl_2, 10 mM CaCl_2, 1 mM DTT) radiolabelled DNA at a final concentration of 1×10^-10 M unless stated otherwise, 50 ng dIdC, 0.2 mg/ml BSA (Boebringer Mannheim), and the indicated amount of purified phosphorylated STAT protein. The reaction volume was mixed and then incubated at room temperature. The time necessary to reach equilibrium was assessed by EMSA [(Stone et al., in Jost, J.P. & Saluz, H.P. (eds) *A Laboratory Guide to In Vitro Studies of Protein-DNA Interactions* BioMethods, vol.5:163–195 (1991)]. For all DNA fragments tested, equilibrium turned out to be fully established at the earliest timepoint that can be determined by this technique (30 sec). Therefore incubation periods of 5–15 minutes were chosen. Reaction products were loaded onto a 4% polyacrylamide gel (1.5 mm thick) containing 0.25×Tris-borate-EDTA which had been pre-run at 20V/cm for 2 hours at 4° C. Electrophoresis was continued for 60 minutes at 4° C. […]

Chain of STAT-1alpha wild type (Tyr-phosphorylated) (P42224 2-750, one chain of several): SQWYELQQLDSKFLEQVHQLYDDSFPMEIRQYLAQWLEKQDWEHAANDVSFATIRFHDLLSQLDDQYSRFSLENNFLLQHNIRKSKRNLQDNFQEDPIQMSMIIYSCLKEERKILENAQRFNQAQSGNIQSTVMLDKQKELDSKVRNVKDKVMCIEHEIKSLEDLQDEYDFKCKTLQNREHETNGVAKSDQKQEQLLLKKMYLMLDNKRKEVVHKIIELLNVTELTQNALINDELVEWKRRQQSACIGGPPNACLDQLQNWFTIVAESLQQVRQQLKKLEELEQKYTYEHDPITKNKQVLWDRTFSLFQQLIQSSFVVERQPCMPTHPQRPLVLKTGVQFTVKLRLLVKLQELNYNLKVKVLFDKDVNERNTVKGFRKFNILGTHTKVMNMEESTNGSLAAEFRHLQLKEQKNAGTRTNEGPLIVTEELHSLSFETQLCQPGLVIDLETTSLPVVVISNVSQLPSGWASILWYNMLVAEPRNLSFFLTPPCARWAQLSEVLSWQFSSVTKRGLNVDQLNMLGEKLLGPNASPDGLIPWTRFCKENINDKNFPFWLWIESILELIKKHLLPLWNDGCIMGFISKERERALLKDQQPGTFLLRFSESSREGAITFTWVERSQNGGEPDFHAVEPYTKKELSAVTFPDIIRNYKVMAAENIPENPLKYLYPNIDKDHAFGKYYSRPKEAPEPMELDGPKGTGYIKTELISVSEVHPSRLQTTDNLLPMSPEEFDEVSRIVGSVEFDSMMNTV

B1: tandem c-fos STAT recognition element, 10 bp spacing (dsDNA)
DNA 1: GCCAGTCAGTTCCCGTCAATGCATCAGGTTCCCGTCAATGCAT
DNA 2: ATGCATTGACGGGAACCTGATGCATTGACGGGAACTGACTGGC
binding result: binds
